Measured values published in patent US20240325557A1 (INNATE PHARMA, published 2024).

Tests used:
[1] = molecular target: T1, monomeric huNectin4-his-BirA protein (human, UniProt Q96NY8 32-349); experiment: SPR (Biacore T200), antibody captured on Protein A, monomeric huNectin4-his-BirA injected
T1 construct: also called Human Nectin4-His-BirA; huNectin4-BirA
T1 sequence: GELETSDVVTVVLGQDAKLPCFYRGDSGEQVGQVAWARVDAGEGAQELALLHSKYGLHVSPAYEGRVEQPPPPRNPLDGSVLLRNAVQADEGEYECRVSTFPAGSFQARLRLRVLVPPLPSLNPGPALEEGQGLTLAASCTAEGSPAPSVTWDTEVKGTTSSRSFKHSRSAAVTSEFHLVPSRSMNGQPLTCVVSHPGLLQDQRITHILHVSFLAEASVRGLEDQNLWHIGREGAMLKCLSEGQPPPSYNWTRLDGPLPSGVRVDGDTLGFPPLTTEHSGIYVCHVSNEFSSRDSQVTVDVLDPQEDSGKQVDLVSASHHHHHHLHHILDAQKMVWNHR
Procedure: Antibodies were tested for binding affinity to the wild-type human Nectin-4 protein by SPR (Surface Plasmon Resonance) methods. Measurements were performed on a Biacore T200 apparatus (Biacore GE Healthcare) at 25° C. Sensorgrams were analyzed with Biacore T100 Evaluation software. A CMR Sensor Chip with immobilized Protein A at about 600 RU was used. Anti-Nectin-4 antibodies were captured onto the Protein-A chip (antibodies diluted to 1 μg/ml in HBS-EP+1× buffer and injected over 120s at 40 μL/min). […] The chip was regenerated with NaOh 10 mM 2× for 30s at 40 μl/min. The sensorgram sets were fitted using the 1:1 kinetic binding model or two state reaction model, as a function of the profile of the curves.

[2] = molecular target: T2, human Nectin-4 Mutant 7bis (human, UniProt Q96NY8 32-510); experiment: binding to HEK-293T cells transfected with the Nectin-4 mutant
T2 construct: Expressed on transfected HEK-293T cells; also called A72P/G73N/K197T/S199A
T2 chain: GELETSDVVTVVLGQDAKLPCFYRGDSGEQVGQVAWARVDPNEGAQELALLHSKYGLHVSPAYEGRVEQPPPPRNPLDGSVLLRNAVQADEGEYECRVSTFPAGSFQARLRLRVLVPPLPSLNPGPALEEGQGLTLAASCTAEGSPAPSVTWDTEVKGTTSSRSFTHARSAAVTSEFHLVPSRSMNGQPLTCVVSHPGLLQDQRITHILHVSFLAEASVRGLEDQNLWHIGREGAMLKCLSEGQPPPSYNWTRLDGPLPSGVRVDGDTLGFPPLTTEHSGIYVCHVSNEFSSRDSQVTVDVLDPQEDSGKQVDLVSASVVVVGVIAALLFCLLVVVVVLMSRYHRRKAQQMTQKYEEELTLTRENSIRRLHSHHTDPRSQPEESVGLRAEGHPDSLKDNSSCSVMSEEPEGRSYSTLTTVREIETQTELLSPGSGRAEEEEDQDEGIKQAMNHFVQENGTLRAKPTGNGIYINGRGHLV

human Nectin-4 Mutant 7 = molecular target: T3, human Nectin-4 Mutant 7 (human, UniProt Q96NY8 32-510); experiment: as above
T3 construct: Expressed on transfected HEK-293T cells; also called S195A/K197T/S199A
T3 chain: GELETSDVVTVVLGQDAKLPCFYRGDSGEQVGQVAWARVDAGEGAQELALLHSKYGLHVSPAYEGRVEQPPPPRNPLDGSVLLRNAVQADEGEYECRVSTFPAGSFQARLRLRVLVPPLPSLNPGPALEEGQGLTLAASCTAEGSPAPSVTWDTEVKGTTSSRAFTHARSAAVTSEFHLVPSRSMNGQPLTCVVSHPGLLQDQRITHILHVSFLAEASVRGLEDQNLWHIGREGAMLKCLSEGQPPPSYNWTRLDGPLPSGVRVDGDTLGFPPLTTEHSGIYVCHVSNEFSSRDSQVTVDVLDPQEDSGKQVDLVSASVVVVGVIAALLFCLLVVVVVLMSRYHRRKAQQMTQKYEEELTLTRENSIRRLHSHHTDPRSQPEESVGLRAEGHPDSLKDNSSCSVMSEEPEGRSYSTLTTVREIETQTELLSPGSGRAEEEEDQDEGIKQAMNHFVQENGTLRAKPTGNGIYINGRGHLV

[3] = molecular target: T4, huNectin4-C1C2-V5 (C1C2 construct, lacking the Ig-like V domain) (human, UniProt Q96NY8 148-510); experiment: flow cytometry titration on Hu-Nectin4 IgC1C2-V5 sorted cells (row label printed IC50)
T4 construct: Expressed on CHO cells; also called Hu-Nectin4 IgC1C2-V5; Nectin4-C1C2-V5 sorted cells
T4 sequence: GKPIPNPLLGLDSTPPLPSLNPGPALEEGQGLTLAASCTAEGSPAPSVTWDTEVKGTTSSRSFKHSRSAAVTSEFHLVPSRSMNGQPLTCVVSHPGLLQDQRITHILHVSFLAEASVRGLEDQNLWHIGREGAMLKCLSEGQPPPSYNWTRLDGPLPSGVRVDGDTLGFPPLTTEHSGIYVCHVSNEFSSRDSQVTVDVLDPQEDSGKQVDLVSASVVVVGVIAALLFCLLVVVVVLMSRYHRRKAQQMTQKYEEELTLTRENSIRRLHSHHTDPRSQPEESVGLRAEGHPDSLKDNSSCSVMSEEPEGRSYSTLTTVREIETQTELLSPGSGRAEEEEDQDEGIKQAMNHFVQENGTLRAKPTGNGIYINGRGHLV

[4] = molecular target: T5, Mouse Nectin-4 on CHO cells (mouse, UniProt Q8R007 32-508); experiment: flow cytometry on CHO cells expressing mouse Nectin-4
T5 construct: also called mouse Nectin 4 protein
T5 sequence: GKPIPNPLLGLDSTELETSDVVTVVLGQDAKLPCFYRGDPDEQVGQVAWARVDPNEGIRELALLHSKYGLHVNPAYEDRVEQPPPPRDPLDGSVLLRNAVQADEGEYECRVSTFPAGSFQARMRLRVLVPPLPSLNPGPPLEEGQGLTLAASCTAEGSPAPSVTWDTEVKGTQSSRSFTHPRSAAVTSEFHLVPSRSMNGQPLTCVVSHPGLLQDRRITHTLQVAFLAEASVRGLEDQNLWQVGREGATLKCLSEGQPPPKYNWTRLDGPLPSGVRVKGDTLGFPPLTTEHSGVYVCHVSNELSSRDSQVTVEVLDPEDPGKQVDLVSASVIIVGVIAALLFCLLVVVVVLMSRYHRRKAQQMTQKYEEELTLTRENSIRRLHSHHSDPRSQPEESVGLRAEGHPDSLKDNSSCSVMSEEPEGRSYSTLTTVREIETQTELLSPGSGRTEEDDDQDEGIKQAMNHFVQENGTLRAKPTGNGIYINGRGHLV

[5] = molecular target: T6, wild-type human Nectin-4 on the CHO huNectin4 Cl.3C8 cell line (human, UniProt Q96NY8 32-510); experiment: flow cytometry titration on CHO cells expressing wild-type human Nectin-4 (huNectin4), median MFI
T6 construct: also called whole Nectin-4 protein; huNectin4 CI.3C8
T6 sequence: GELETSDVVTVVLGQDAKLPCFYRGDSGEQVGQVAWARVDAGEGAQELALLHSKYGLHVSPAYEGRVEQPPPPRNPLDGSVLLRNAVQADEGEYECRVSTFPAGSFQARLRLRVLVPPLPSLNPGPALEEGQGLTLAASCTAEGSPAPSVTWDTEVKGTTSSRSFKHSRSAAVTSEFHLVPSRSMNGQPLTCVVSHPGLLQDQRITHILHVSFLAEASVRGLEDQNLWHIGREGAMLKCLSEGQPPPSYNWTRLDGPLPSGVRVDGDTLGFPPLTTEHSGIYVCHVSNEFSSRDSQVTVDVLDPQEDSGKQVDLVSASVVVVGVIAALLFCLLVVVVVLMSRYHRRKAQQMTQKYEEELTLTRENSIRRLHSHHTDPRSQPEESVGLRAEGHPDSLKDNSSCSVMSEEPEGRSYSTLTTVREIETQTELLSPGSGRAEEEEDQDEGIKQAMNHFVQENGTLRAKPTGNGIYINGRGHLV
Procedure: The characterization of the binding of the antibodies on Nectin-4 domains was performed by flow cytometry using cells made to express the wild-type human Nectin-4 protein and cells made to express a modified Nectin-4 having the Ig-like C₂ type 1 and the Ig-like C₂ type 2 domains and lacking the Ig-like V domain (the C1C2 construct). The latter protein additionally bears a V5 tag for flow cytometry cell sorting, and cells were used as Nectin4-C1C2-V5 sorted cells.

[6] = molecular target: T7, Rat Nectin-4 on CHO cells (rat, UniProt Q8R007 31-508 (mouse entry)); experiment: flow cytometry titration on CHO cells expressing rat Nectin-4, median MFI (PE)
T7 chain: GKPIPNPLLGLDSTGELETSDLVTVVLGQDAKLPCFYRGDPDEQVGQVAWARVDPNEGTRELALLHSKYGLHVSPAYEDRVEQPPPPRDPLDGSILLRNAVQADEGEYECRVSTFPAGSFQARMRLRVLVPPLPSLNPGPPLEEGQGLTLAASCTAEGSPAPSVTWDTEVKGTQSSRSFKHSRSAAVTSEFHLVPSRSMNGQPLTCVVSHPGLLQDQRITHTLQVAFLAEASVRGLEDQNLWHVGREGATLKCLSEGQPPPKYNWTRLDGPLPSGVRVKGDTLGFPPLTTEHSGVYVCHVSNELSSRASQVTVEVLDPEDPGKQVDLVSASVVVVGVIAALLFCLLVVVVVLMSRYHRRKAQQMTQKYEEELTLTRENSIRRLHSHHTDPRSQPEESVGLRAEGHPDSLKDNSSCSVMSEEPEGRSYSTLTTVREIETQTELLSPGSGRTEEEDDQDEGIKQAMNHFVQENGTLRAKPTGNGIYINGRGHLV

B1: antibody 5E7 (antibody, human IgG1, V domains shown)
VH: QVQLQQPGAELVKPGASVKLSCKASGYIFTSYWMHWVKQRPGQGLEWIGEIDPSDSYTNYNQKFKGKATLTLDKSSSTTYMQLSSLTSEDSAVYYCVRGYGNYGDYWGQGTTLTVSS
VL: DVVMTQAAFSNPVTLGTSASISCRSSKSLLHSNGITYLYWYLQKPGQSPQLLIYQMSNLASGVPDRFSSSGSGTDFTLRISRVEAEDVGVYYCAQNLELPWTFGGGTKLEIK
notes: Mouse variable domains; also called mAb6; Mab6
- Kd [1]: 4.8 nM
- koff [1]: 0.003 s⁻¹
- kon [1]: 620000 M⁻¹ s⁻¹
- binding result [2]: no binding
- binding result (human Nectin-4 Mutant 7): no binding
- EC50 [3]: 0.0524 µg/mL
- binding result [4]: no binding
- EC50 (read off the curve) [5]: ~0.05 µg/mL

B2: antibody 10B12 (antibody, human IgG1, V domains shown)
VH: QVQLQQPGAELVKPGASVKLSCKASGYTFTSYWMHWVKQRPGQGLEWIGEIDPSDSYTNYNQKFKGKATLTVDKSSSTAYMQLSSLTSEDSAVYYCVRGYGNYGDYWGQGTTLTVSS
VL: DIVMTQAAFSNPVTLGTSASISCRSSKSLLHSNGITYLYWYLQKPGQSPQLLIYQMSNLASGVPDRFSSSGSGTDFTLRISRVEAEDVGVYYCAQNLELPWTFGGGTKLEIK
notes: Mouse variable domains; also called mAb7; Mab7
- Kd [1]: 12 nM
- koff [1]: 0.01 s⁻¹
- kon [1]: 860000 M⁻¹ s⁻¹
- binding result [2]: no binding
- binding result (human Nectin-4 Mutant 7): no binding
- EC50 [3]: 0.0197 µg/mL
- binding result [4]: no binding
- EC50 (read off the curve) [5]: ~0.02 µg/mL

B3: Enfortumab (ASG-22ME) (antibody, V domains shown)
VH: EVQLVESGGGLVQPGGSLRLSCAASGFTFSSYNMNWVRQAPGKGLEWVSYISSSSSTIYYADSVKGRFTISRDNAKNSLSLQMNSLRDEDTAVYYCARAYYYGMDVWGQGTTVTVSS
VL: DIQMTQSPSSVSASVGDRVTITCRASQGISGWLAWYQQKPGKAPKFLIYAASTLQSGVPSRFSGSGSGTDFTLTISSLQPEDFATYYCQQANSFPPTFGGGTKVEIKR
- EC50 (read off the curve) [6]: ~0.2 µg/mL

B4: mAb3 (antibody, V domains shown)
VH: EVQLVESGGGLVQPGGSLRLSCAASGFTFSSYNMNWVRQAPGKGLEWVSYISSSSSTIYYADSVKGRFTISRDNAKNSLSLQMNSLRDEDTAVYYCARAYYYGMDVWGQGTTVTVSS
VL: DIQMTQSPSSVSASVGDRVTITCRASQGISGWLAWYQQKPGKAPKFLIYAASTLQSGVPSRFSGSGSGTDFTLTISSLQPEDFATYYCQQANSFPPTFGGGTKVEIKR
- EC50 [3]: 0.156 µg/mL
- EC50 (read off the curve) [5]: ~0.2 µg/mL
